Source: a protein production outcome set (Wang et al. 2014)

Assay: label from the status in PepcDB records

MADRLIVRGAREHNLKNVSLDLPRDSLIVFTGLSGSGKSSLAFDTIFAEGQRRYVESLSSYARQFLGQMDKPDVDFIEGLSPAVSIDQKSTSRNPRSTVGTITEVYDYLRLLFARIGKPHCPECGRPISRQSPQAIVDKVLELPEGSRFQVLSPLVRERKGEFVDLFADLQTKGYSRARVDGETVQLSNPPTLKKQEKHTIEVVVDRLTVKDSAKRRLTDSVETALGLSGGMVVLDFVDLPEDDPERERMYSEHLYCPYDDLSFEELEPRSFSFNSPFGACPDCSGIGTRMEVDAELIVPDEDKSLDEGAIHPWSHGHTKDYFGRLIGALADALGFRTDIPFAGLPLRARKALLYGHKTQVEVRYRNRYGRERRYTTAFEGAIPFVKRRHSEAESDASRERFEGYMREVPCPTCQGTRLKPLVLAVTVMGKSIAEVSAMSISDCADFLGELTLNARDKKIAERVLKEVNERLRFLVDVGLDYLSLNRAAGTLSGGEAQRIRLATQIGSGLVGVLYVLDEPSIGLHQRDNHRLIETLVRLRDMGNTLIVVEHDEDTIKVADWIVDIGPGAGEHGGKVVHSGSVKELLDNAESQTGLYLSGRKAIPLPDIRRPQDPSRRLTVHGARENNLQDIDVSFPLGVFTAVTGVSGSGKSTLVNDILYTHLARELNGARNVPGRHTRVDGDDLVDKVVHVDQSPIGRTPRSNPATYTGVFDHIRKLFAETTEAKVRGYLPGRFSFNVKGGRCENCAGDGTIKIEMNFLPDVYVPCEVCHGARYNRETLEVHYKGKSIADVLNMPIEEATDFFEAVPAISRHMKTLKDVGLGYVRLGQSATTLSGGEAQRVKLASELQRRSTGRTVYVLDEPTTGLHFEDISKLLTVLGGLVDKGNTVIVIEHNLDVIKTADWVVDMGPEGGAGGGLVVAEGTPEQVAGVPASHTGKFLRDVLGADRVSDAAPVTRPRKAAKTVAAKAAAKKTATKTVTGTAAKKATATRTAKTAVKKAAKPAAKKTTRTSKA
protein production: failed

MVSRSPFESFQWKSDIFNCESTDIDNFYLLLEQEMTRLGMVEKNLGEVGKYKVSLYQSPAAKSGLPSLLISAGFHGEESAGPWGLLHFLSEASADLFERVNLSLLPLVNPTGFSRGHRFNKYGENPNRGFVFENGKPKANEHTSVEGKLLLDHAQLLIAACRDGILTCHEDVLSREAYVYSFEPSQVPGRFSLDLRDTLGGYFPIAVDGEIDACPVKDGLIFNHFDTSFEACLVRSGARVGACTETPALQNFDQRVLANSAAMTHFLALCAPLCD
protein production: not failed

MDDVVEELLRIVVESLQYEEGNLNEAVDLAINFSTKNSIFFDQLLSLSTYCGSEGSYELAYVFAKTTANLSTGSEKAVAHHNAGTASYFLNLPMEAEEHYKLALQADPKHVNTHSNYGLLLSDMGRRDEAEQQYKLALKLDPKHVNTHYNYGILLYDMRRLDEAGEQYKLALESEPKHVKTHYNYGNLLSDMGSLDEAEEQYKLALESEPNDADIHYNYGLLLYNMESLDEAEEQYKLALESEPNDASTHSNYGILLSDMGRRDEAEEQYKLALESDPKHVNTHYNYGNLLSDMGRLDEAEEQYKLALESDPKHVKTHYNYGNLLSDMGRLDEAEEQYKLALESDPNDASIHSNYGILLSDMGRHEEAEEQYKLALETDPNDADIHYNYGNLLKRMGRLDEVEKQYILALEADPKHVNTHYNYGKLLEQMGRLDEAEKQYKIAIGIDPKMPNSHGAYGLLLFFQDLEEEAIKETEVASRLCRENGDKVKEHLSLAWLYEKFANKYYNLKDYKKSGEYAEISGDEYIEAGKQAGESFKDTSLTKGYTLKGRAKIRKLEIKTPFYKDIIKRIWNKESYEIEKFTKIINCIKDASICYEKAAKASPKDNQLCNACSISMSCLSEMLDYMFAVIKQKKTPELEDKLKNWNEKLSIAKGAYQEHSKGELFIESLYKLMGCIQNLDKYKKYGTREYGRAFEECRKELTEIANNIEGPIQKIIENVTKKMDVCRLKQLPYAGTETGYIPQPNKLSQFLKWILDPKRIGIGVFGIIITVIVNHYNEYLFSLIKRTVTMLLSKI
protein production: failed

NRCTFACVFCQNYDIVYEDDYIVDARELAYIIDVRRRQGSKNVNFVGGNPDQHAHTIAEILLYVESNVPVVWNSNMYHSEELAEVIEDFVDVWLGDFKYGNDECARKYSKVANYWKVVTRNFLRAKENG
protein production: failed

MSCHLSYLEGTMEFMISGRNLTVSDRFREYAGEKISKIESLGDKVQRVDAKVSKETNPRQTPGELTVEVTVLGRGPVIRAEATAADKFAAFDLAYNKLLERLRRAKDRKKVHHGRHTPKAVREATATLEPASASEPLYVEASNHQESAPPVDERSPYDIENDIPAGDSPVLIRRKVFPAASLTLDDAVDNMELVGHNFYLFLDKETNAPSVVYRRSGWTYGVITLDSTCEPGEEAVEEKIHAYRSDDQAATAK
protein production: failed

MIKVNVMYPYTEGARFDHAYYCDRHMPMVKARLGSACAYYTVEKGLAGSASGAPPAFVAMCAFICDSAENFYAAMYYHGAEILGDIANYTDIAPVLQISEVVVERSDR
protein production: not failed

MSFESNQLMPIAALRGGPGTPAADVLTAFALRRKAEGIDVVGVIVPPEDAGSGHQGHGHGEGHGGGHEGCECRSELIDIATGDRYAMHQDLGSGSQACNLNSSSLALAAGAVERAVARKPALVVLSRFGGQEAVRGGLMSAFQAAIAAGVPVACVVTPKAEDVWNDFAQGLSVSLPPEADALEAWWRDHARGRNAALEHHHHHH
protein production: failed

MAGETPEQGEGRIISGRYRLLRTLGAGGMGRVWLAYDAELACEVAVKEIALPDLPIDASEPVQRIARARSEARNAARLRGHPHVATVHDVVVHEGLPWIVMEHVPDAIDLQAVVRRSGPLTPARTARIGVAVLDALTAGHRIGILHRDVKPANILLAPDASGDPYARVLLTDYGIALQPESREPRLTATAGILGTPGYLAPERARGEPPTPAADLFSLGATLYATVEGRGPFDRHGEYATLTALLGEEPTPPVRAGELGAVLHGLLIKDPVRRLAPEAVARGLEAVARAAPGEGFGPPPGWGSAPSVGQGFGPPPQGFGPPPDGFGPPSGTPSVSPPSAEGATTAPGAPGAPQVSAPGTPQTPGAPRTPHTPHTPQTPAGGPGTPPGSPSAYNPWRPTPPSGPYDPGNPYASSPSSPYAGTGAPAAYEGGPAYFPPRPSPRRKSAAALVALVVAAALVVTGGIWAALSLTGGPTGDGGGTTGQRAKKSPPVSGPQSTKPAGPVLPYGEQVGLTEPLQAGDCVRAVWSGAAFKSVPNLGVVDCADDWPDGQVVAVDTATDYADARDRGARRCAGQSQATADALPDAGVYAVAPTKEGFTAASGGTACLVLGRHAAIGGEVGRFRDTGTDLWVGQMSIGDCWIYKEEKDSYKAPLSDCAQPHTDQVIGAVSAPKNMDYKKGVDNGNKLCGNKFESSWAPGPARQVFGWVADKEDWNDGFDKVVCTVRRSDGAETSGKISAPGAV
protein production: failed

MGNGVQPLDPVAIQIGSISVKWYGVIIASAVVIALLLALSEANKRKMDKEIIVDLLIWAIPISIISARIYYVIFEWDFYKNNLGEIVKIWHGGIAIYGALIGAVLTAIIFSRIKKISFWQLADVVAPSLIIAQAIGRWGNFMNQEAHGAETTRSFLESLHLPDFIINQMYIDGAYYQPTFLYESLWNVLGFVILLIIRRTKIRRGELFLGYVIWYSFGRFFIEGMRTDSLMWGDFRVSQALSLLLIVLSIGIIIYRRLKMNPPYYMEDKFGKVVKKK
protein production: not failed

MLHWISLLCAGCLEMAGVALMNQYAKEKSVKWVLLIIVGFAASFSLLSYAMETTPMGTAYAVWTGIGTAGGALIGILFYKEQKDAKRIFFIALILCSAVGLKILS
protein production: failed

MSVLPCFSLMCSLSLGEVKAVKIKPMLARLQSAMGRDDLIDQMVLLPEPQKGQTTQSINLIVGYDASPNSHTALDIACWIAHQTRLATNQQVTVQAVYVVEDSNTKNRSNILSFAKRLPTIELPPSETKKSSTSVITQPKLTGIKSYLQTDTLTPLQEADRIIWQARTLAEEWQGSFKSHLRFGCVSTELRKVAEFEAADILFLGCKSVYHPLIETLGYNFPCAVLGIPECIDE
protein production: failed

MVDLGKQRDHNYHHMQIITTPTSVDCSREFRHRRTLRSLIECMIPYCCTYQQQPYQNDTLSVSSTSSSSSSSDHSSSSQSSSTVSGTFFGHRRGRVSFCLQDAAVGSSPLLLLELAVPTAALAKEMDEEGVLRIALECDRRRSSNSRSSSIFDVPVWSMFCNGRKMGFAVRRKVTENDAVFLRMMQSVSVGAGVVPSEEEDQMLYLRARFERVTGSSDSESFHMMNPGGSYGQELSIFLLRS
protein production: failed

MKKRILAVAVTSMLLSASVFAQETVVPSRVGDLKFESDFPTQETMKNMLNEMDFQRATQAYLWGIPASSIMEWLNVSRNDFKFEEGQMGFFNTLKQKQGIITANFTTPYVIGTWNLEKTGPLIINLPEAKMAGMMLDVHQRVLSDLSLLGPDKGKGGKYLIVPPGEKYKDLNPKGYYVIRPKTNVVYGGIRILEPDVDRVVKQVVPNITTQPYADGKLGRKIPVAQVPEIDWTHIPKDGLEYWKTIHQIIQENPVEERDRFVMAQLKFLGIEKGKPFNPTEEQKKILLEASKVGRAMAQSNDYTKRFTQPYWKGTNWKDAISVSLDQRSENYDELDERAAWFYEAITVSRGMKSTIPGFGQRYLVTYQDSDGNWLSGEHTYKLHVPANVPASNFWSTTVYDENNRLMIINDAGSPDISSRKNLKVNSDGSIDVYYGPKPVKGYENNWVQTNPGEGWFTYFRFYGPTEKMFDKSWTMGDIELVKLEHHHHHH
protein production: not failed

MKLGIGKIKDVLKSGAGKSTESGREEQKIEEIEPDRVEEATMTAKISEQESENTPDKEHLVPMNRTECKKTGLIFFPAFDWAISPTHPEREERLLYTRDQIFEEGLMDLPQIAEYKPRLAEFKDIARVHFCIPDIEAQATTPHLIAAGSCLVLADALMRGEVKNAFALVRPPGHHAMTVAHGNRGFCNINNEAILVEYLRKKYGIRRIAIVDTDVHHGDGTQEIFYNDPDILFISFHQDGRTLYPGSGFTNELGGPKALGRTINIPLPPGTPDEGILYVLDSLVMPILEDFKPELVLNSAGQDNHYTDPLANMRFSAQGYAKLNEKLGPDMAVLEGGYAIQSALPYVNTGIILAMAGLDYSCVMEPDFKPGMFVQAARDRQILEGVVATQLENWKNRNRLVEEEIAKHGDFYRRKKQIFYDTDMIQEVQEETIKMCPDCQGYVTIDSRAHRSINDTRIFGVSVPIYACNRCQAEAEEEYKKRLKSPEYEYVYLQDKKADEYRAYNMRTKQEIVY
protein production: failed

MLNEEQNSLEEKGGENKNEKETPLKGIHSKIPSLKQALEQTISKIKSSKEFFKQILHNKKKLYIALGALLLLIVLIVALSLLLGHKKENKQTSLQTNTIATNNETPNNTNNANNTEAERQIENLDLSDLIGKDSLKRNDENQVDAIMKKASLLYEQGQKDEALHLFDKAASFSQGIASHNLGVIKFKEKDFNGALDLFDSSIASKENASVSAIDALVSAYHLQDEDLYYHYLKIARDTLYKDYKKSFYSYAYALKSYYAGEYFEALSPLMHPNSNAFLKPNTRLASKLFLMFKDETNAYEQLQKSANAQDELALGLLQARLGHYKQALEHLQHYLHNYPKDLNALMALELVSLKKGDTLKASEALKLASHTKEDTLLANSFYPIKPTINPVFLDKERAKERFWNTQYFEGKRDFIYRLLFYYAPFKVLDSKETLGVIEEGLFLLDSDAQKDLEGASLAFKRGRLMAIADKNALQGLKALENKRLKKALSFFDLSLKNSPNNALLHYNTGLIYAQLENYHKAYFHFLRAFHLNSADYLSAVFAILASHFTHEDTTEFLREITENFYSQDFSSPTQKALLSSLIAYLNYRTNWDMDWLKNAPKKLPFYYALEAAFAKESKDKKLMVQSFGNLKKMLPKDLISNIFYEIVSYYDASIRHTLSIYTLLDSHKISWDQTMQGPILGRHFYTYMGFMVNDLDHQERLLEQKIASLEEGEAPNDWLENLALVSLFQGQYEKASALYQNLISGLKDNETHLKILAGLTYIAQNNYDSAALWLELGKLDDPNNENIRYALGLLYQRKGDLKSALNHFLAIKTSDFSSPYFDFEIDANLLKERLDQEKEGEFLE
protein production: failed

MVEAIIFDMDGVLFDTEKYYYDRRASFLGQKGISIDHLPPSFFIGGNTKQVWENILRDEYDKWDVSTLQEEYNTYKQNNPLPYKELIFPDVLKVLNEVKSQGLNIGLASSSVKADIFRALEENRLQAFFDIVLSGEEFKESKPNPEIYLTALKQLNVQASRALIIEDSEKGIAAGVAADVEVWAIRDNLFGMDQSAAKGLLDSLTDVLDLIK
protein production: not failed
